From patent US7871610B2, “Antibodies to Tie1 ectodomain” (Dyax Corp., priority 2003, dated 2011) come the findings set out here.

Assay type in all cases: binding
One assay addresses Tie1 (Homo sapiens, UniProt P35590). Kind of assay: Immunofluorescence staining of Tie1-transfected COS1 cells. Particulars: COS1 cells transfected with pcDNA3-Tie1-V5; antibodies 5 μg/ml. On the procedure:
COS1 cells on the glass coverslips were transiently transfected with pcDNA3-Tie1-V5 (the V5-epitope was added to the 3′ terminus of pcDNA3-Tie1) (1 μg DNA per 10 cm cell culture plate) using FUGENE™ 6 (Roche) according to manufacturer's instruction and incubated for 48 h before staining. Cells were fixed in 4% paraformaldehyde for 10 min at 4° C. If required, the cells were permeabilized with 0.2% Triton X-100 in PBS for 5 min. Unspecific binding sites were blocked by incubation with 1% BSA in PBS for 30 min. The cells were then stained with anti-Tie1 antibodies (5 μg/ml) and anti-V5 antibodies for 1 h at room temperature, followed by incubation with FITC— conjugated anti-human antibodies (DAKO, 40 μg/ml) and TRITC-conjugated anti-mouse antibodies (DAKO, 15 μg/ml) for 30 min. Hoechst 33258 fluorochrome (Sigma, 0.5 μg/ml) was used for the staining of the nuclei.

In another assay the target is T1, Mouse Tie 1-Fc (Mus musculus, UniProt Q06806).
T1 sequence (Q06806 23-755 limits assumed): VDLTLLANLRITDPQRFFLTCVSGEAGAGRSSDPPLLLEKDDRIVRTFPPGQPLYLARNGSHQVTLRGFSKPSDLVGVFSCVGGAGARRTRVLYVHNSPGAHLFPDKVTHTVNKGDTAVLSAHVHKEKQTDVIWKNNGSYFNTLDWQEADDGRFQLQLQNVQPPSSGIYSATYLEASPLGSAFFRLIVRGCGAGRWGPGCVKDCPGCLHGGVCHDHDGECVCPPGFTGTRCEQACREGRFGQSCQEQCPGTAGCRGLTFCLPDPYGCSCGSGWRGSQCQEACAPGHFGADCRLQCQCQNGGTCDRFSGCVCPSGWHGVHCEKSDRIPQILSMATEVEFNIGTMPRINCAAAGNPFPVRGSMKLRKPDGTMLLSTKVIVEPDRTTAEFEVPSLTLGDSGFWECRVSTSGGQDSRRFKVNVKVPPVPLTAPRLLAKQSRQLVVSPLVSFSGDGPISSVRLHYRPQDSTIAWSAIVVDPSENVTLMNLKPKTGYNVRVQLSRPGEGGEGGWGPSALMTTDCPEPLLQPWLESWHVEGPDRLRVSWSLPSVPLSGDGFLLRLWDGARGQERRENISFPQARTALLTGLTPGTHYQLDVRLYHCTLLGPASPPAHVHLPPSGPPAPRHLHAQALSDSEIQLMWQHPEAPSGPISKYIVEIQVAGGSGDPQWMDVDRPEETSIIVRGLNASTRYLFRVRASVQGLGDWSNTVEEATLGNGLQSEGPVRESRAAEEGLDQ
Kind of assay: BIAcore, E3 Fabs on mouse Tie1-Fc. Particulars: E3 Fab over biotinylated mouse Tie-1 Fc on streptavidin chip; 1:1 model. On the procedure: Mouse Tie 1-Fc antigen (0.5 mg/ml stock) was biotinylated using established procedures and after dilution 1/100 fold in HBS this was then used for capturing to a streptavidin chip. This was coated to a resonance value of 740RU. All analysis was performed in HBS buffer. The parental Fab E3 0.587 mg/ml (11740 nM) was diluted 1/587 in HBS+BSA to obtain a stock of 20 nM and the germlined Fab E3 0.025 mg/ml (500 nM) was diluted 1/25 in HBS+BSA to obtain a stock of 20 nM. Serial dilutions were made of each Fab preparation to obtain 10 nM, 5 nM, 2.5 nM, and 1.25 nM. For the association phase samples were injected at 30 μl/min for 4 minutes using kinject program. This was followed by a 10 minutes dissociation phase, any remaining sample was stripped from the Tie-1 Fc surface at a flow of 50 μl/min with a single injection of 50 mM NaOH+1 M NaCl for 18 seconds. All samples were run and analyzed in duplicate.
Sensorgrams were analyzed using the simultaneous ka/kd fitting program with 1:1 model in the BIAEVALUATION™ software 3.1.

In assay [1] the target is T2, recombinant human Tie1-Fc (Homo sapiens, UniProt P35590).
T2 construct: selected against the Tie1 extracellular domain fused to human Fc or to a histidine purification tag
T2 sequence (P35590 22-759 limits assumed): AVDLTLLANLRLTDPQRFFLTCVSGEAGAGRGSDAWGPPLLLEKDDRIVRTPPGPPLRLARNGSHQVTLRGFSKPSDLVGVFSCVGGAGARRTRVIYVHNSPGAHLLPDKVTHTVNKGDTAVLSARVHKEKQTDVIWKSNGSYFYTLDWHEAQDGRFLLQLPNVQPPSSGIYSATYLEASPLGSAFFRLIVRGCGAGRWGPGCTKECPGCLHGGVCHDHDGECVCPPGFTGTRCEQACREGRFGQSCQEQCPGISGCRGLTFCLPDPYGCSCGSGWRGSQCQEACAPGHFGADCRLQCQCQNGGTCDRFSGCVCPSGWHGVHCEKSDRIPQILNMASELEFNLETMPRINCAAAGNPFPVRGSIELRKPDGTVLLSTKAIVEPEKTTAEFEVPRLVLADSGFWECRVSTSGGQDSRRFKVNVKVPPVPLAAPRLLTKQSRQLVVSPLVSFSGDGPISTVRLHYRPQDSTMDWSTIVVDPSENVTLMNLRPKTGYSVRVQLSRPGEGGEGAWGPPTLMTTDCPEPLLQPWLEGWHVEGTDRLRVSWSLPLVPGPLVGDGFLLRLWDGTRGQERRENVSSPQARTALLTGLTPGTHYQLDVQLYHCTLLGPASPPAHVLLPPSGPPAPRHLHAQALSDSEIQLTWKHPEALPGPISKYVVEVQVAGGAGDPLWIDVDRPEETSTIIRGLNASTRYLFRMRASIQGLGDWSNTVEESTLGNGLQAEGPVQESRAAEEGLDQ
Briefly: BIAcore, parental and germlined E3b Fabs on human Tie-1/Fc. The settings on record: E3 Fab over human Tie-1/Fc coated on CM5 chip; 1:1 model. On the procedure: Recombinant human Tie-1/Fc was coated on a CM5 chip. The surface of the chip was first activated with a 7-minute pulse of 0.05 M NHS/0.2 M EDC, then Tie-1/Fc (2 μg/ml in 10 mM sodium acetate, pH 4.0) was run over the chip surface until 750 RUs were coated on the surface. All flow cells were subsequently deactivated with a 7-minute pulse of 1 M ethanolamine hydrochloride, pH 8.5. All further experiments were performed in HBS buffer.
The parental and the germlined E3b Fabs were prepared. A series of dilution (50, 25, 12.5, 6.25 and 3.125 nM) was prepared in HBS buffer. Samples were injected at 30 μl/min for 5.3 minutes using the KINJECT™ program. This was followed by a 10-minute dissociation phase, and the remaining Fab was stripped from the surface with a single 18-sec injection of 50 mM NaOH/1 M NaCl.
Sensorgrams were analyzed using the simultaneous ka/kd fitting program from the BIAEVALUATION™ software 3.1 assuming a 1:1 model.
For orientation: Surface plasmon resonance follows binding to a sensor surface in real time, without labels.

Chain of Tie1 (P35590 22-1138): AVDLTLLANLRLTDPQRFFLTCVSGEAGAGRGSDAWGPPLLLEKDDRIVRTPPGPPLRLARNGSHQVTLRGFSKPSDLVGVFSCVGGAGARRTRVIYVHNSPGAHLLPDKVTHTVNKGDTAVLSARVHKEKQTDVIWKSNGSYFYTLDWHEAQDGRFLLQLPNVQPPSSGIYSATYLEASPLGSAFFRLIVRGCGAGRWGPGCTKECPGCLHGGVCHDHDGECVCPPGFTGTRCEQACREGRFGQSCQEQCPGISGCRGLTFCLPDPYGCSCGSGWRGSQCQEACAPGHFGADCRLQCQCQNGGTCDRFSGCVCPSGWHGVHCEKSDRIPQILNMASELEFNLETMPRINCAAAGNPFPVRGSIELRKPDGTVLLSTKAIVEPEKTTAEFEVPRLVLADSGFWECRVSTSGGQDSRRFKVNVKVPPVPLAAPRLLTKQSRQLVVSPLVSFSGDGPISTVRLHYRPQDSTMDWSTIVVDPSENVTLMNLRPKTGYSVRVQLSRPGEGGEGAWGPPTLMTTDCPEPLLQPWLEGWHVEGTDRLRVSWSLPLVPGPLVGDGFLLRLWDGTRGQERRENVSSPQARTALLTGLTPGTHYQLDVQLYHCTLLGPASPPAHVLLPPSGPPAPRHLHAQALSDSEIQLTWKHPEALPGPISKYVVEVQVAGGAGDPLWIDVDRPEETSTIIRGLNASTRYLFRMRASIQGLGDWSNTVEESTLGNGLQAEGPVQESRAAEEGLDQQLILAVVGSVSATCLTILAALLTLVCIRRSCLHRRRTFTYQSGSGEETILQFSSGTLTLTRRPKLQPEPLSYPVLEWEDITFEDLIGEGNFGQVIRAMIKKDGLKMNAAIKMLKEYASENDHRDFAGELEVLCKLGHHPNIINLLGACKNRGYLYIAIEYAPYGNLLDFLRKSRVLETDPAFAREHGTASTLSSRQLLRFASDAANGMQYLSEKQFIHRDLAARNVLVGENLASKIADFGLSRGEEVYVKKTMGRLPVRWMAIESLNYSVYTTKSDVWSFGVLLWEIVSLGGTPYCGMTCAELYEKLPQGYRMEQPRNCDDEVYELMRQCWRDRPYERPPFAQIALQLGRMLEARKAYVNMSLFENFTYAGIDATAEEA

B1: P-F4: anti-Tie1 antibody; VH SEQ ID NO:48, VL SEQ ID NO:50 (antibody, V domains shown)
VH: EVQLLESGGGLVQPGGSLRLSCAASGFTFSAYMMSWVRQAPGKGLEWVSSIYPSGGYTYYADSVKGRFTISRDNSKNTLYLQMNSLRAEDTAVYYCARGLRGGPDYWGQGTLVTVSSASTKGPSVFPLAPSSKSTSGGTAALG
VL: QDIQMTQSPSTLSAYVGDSVTITCRASQSVRRSLAWYQQRPGKAPKSLIYKASTLETGVPPRFSGSGSGTEFTLTISSLQPEDSAIYYCQQYGSFPLTFGGG
modifications: Synthetically generated peptide
Consider B1, for which, in the assay with Tie1, the “IF: Tie1-transfected” value was “cross”.

B2: E3 Fab parental (antibody, V domains shown)
VH: EVQLLESGGGLVQPGGSLRLSCAASGFTFSMYGMVWVRQAPGKGLEWVSVISPSGGNTGYADSVKGRFTISRDNSKNTLYLQVNSLRAEDTAVYYCARAPRGYSYGYYYWGQGTLVTVSSASTKGPSVFPLAPSSKSTSGG
VL: DIQMTQSPLSLSASVGDRVTITCRASQGIGHYLAWYQQKPGKVPKLLIYTASTLQSGVPSRFSGSGSGTDFTLTINSLQPEDVATYYCQQFNSYPHTFGQGTRLDIK
In the assay with Mouse Tie 1-Fc, B2 registered a ka of 246000 M⁻¹ s⁻¹ and a kd of 0.00095 s⁻¹.

B3: E3 Fab Parental (antibody, V domains shown)
VH: EVQLLESGGGLVQPGGSLRLSCAASGFTFSMYGMVWVRQAPGKGLEWVSVISPSGGNTGYADSVKGRFTISRDNSKNTLYLQVNSLRAEDTAVYYCARAPRGYSYGYYYWGQGTLVTVSSASTKGPSVFPLAPSSKSTSGG
VL: DIQMTQSPLSLSASVGDRVTITCRASQGIGHYLAWYQQKPGKVPKLLIYTASTLQSGVPSRFSGSGSGTDFTLTINSLQPEDVATYYCQQFNSYPHTFGQGTRLDIK
Turning to B3, in assay [1], the ka came to 88100 M⁻¹ s⁻¹ and the kd came out at 0.00105 s⁻¹.
